What all share (assay): purified protein, by the assay type
Substrate in data set [1]: CCCC(=O)C(C)=O
Substrate in data set [2]: CC(=O)C(C)=O
Substrate in data set [3]: CCC(=O)C(C)=O
Substrate in data set [4]: CCC(=O)C(=O)CC
Substrate in data set [5]: O=C(CBr)C(=O)CBr
The note with it: other: assay at pH 7.0, 25.0 °C.

Substrate in data set [6]: O=Cc1ccncc1
The note with it: other: rate constants for the major substrates, mouse enzyme; pH 7.0; 25.0 °C.

Substrate in data set [7]: CC(=O)C(=O)c1ccccc1
The note with it: pH 7.0; 25.0 °C.

Substrate in data set [8]: CC(=O)C(C)O
The note with it: other: rate constants for the major substrates, mouse enzyme; pH 7.0; 25.0 °C.

Substrate in data set [9]: COC(=O)C(=O)c1ccccc1
The note with it: other: rate constants for the major substrates, mouse enzyme; pH 7.0; 25.0 °C.

Substrate in data set [10]: CCCCC(=O)C(C)=O
The note with it: other: rate constants for the major substrates, mouse enzyme; pH 7.0; 25.0 °C.

Substrate in data set [11]: O=Cc1cccnc1
The note with it: other: rate constants for the major substrates, mouse enzyme; pH 7.0; 25.0 °C.

Substrate in data set [12]: COC(=O)C(C)=O
The note with it: other: rate constants for the major substrates, mouse enzyme; pH 7.0; 25.0 °C.

Where [13] appears, read: other: assay at pH 7.0, 25.0 °C.
Where [14] appears, read: other: rate constants for the major substrates, mouse enzyme, pH 7.0, 25.0 °C.

By Km is commonly meant the concentration of substrate that gives half-maximal velocity.

B1: protein hDCR1 (Homo sapiens) (protein)
chain: MELFLAGRRVLVTGAGKGIGRGTVQALHATGARVVAVSRTQADLDSLVRECPGIEPVCVDLGDWEATERALGSVGPVDLLVNNAAVALLQPFLEVTKEAFDRSFEVNLRAVIQVSQIVARGLIARGVPGAIVNVSSQCSQRAVTNHSVYCSTKGALDMLTKVMALELGPHKIRVNAVNPTVVMTSMGQATWSDPHKAKTMLNRIPLGKFAEVEHVVNAILFLLSDRSGMTTGSTLPVEGGFWAC
In the case of B1, the Michaelis constant (Km) entry in data set [1] (setting [13]) is listed as “(0.24) mM”; in [2] (setting [13]), “(0.25) mM”; in data set [3] (setting [13]), “(0.26) mM”; in [4] (setting [13]), “(0.12) mM”; in [5], “(0.016) mM”.

B2: protein DCR1 (Mus musculus) (protein)
chain: MDLGLAGRRALVTGAGKGIGRSTVLALKAAGAQVVAVSRTREDLDDLVRECPGVEPVCVDLADWEATEQALSNVGPVDLLVNNAAVALLQPFLEVTKEACDTSFNVNLRAVIQVSQIVAKGMIARGVPGAIVNVSSQASQRALTNHTVYCSTKGALDMLTKMMALELGPHKIRVNAVNPTVVMTPMGRTNWSDPHKAKAMLDRIPLGKFAEVENVVDTILFLLSNRSGMTTGSTLPVDGGFLAT
For B2, the Michaelis constant (Km) is on record as 230 µM in [1] (setting [14]); 900 µM in data set [2] (setting [14]); 4,400 µM in [6]; 280 µM in [3] (setting [14]); 140 µM in data set [7]; 6,500 µM in data set [8]. For the same protein, the Michaelis constant (Km) in [9] is on record as 690 µM; in data set [4] (setting [14]), 130 µM; in [10], 200 µM; in data set [11], 7,900 µM; in data set [12], 1,700 µM. Besides, the Vmax in [1] (setting [14]) is 4.1 unit/mg; in data set [6], 0.78 unit/mg; in data set [3] (setting [14]) it was 5.7 unit/mg; in data set [7], 6.7 unit/mg; in [8] it was 0.51 unit/mg; in data set [9], 8.7 unit/mg. Further, the Vmax turned out to be 6.6 unit/mg in data set [4] (setting [14]), 4.4 unit/mg in [10], 0.62 unit/mg in [11] and 2.7 unit/mg in data set [12]. The Vmax/Km in [1] (setting [14]) is given as 18 unit/mg/mM; in data set [6], 0.18 unit/mg/mM; in data set [3] (setting [14]) it was 20 unit/mg/mM; in data set [7], 48 unit/mg/mM; in data set [8], 0.08 unit/mg/mM; in [9], 13 unit/mg/mM. In addition, the Vmax/Km in data set [4] (setting [14]) is on record as 51 unit/mg/mM; in data set [10] it was 22 unit/mg/mM; in [11] it was 0.08 unit/mg/mM; in [12] it was 1.6 unit/mg/mM.

(Values after patent EP1063290A1, “NOVEL DICARBONYLREDUCTASE AND GENE ENCODING THE SAME” (TAISHO PHARMACEUTICAL CO., LTD, priority 1998, dated 1999).)
